Experimental data as given in publication PMC5067070.

Target: Xenopus laevis ERCC1 (Xenopus laevis (endogenous in egg extract))
Assay: immunodepletion

- percent of SLX4 co-depleted: 90%
Substance: Xenopus laevis SLX4 (natural protein)
